Non-standard residues stand in square brackets, D forms with d. No end group written: not given here. *: point of attachment. Biotin = O=C1N[C@H]2[C@H](CS[C@H]2CCCCC(=O)*)N1; pS = N[C@@H](COP(=O)(O)O)C(=O)O
B1: OPTN LIR peptide (172-186), biotinylated (peptide)
peptide: Biotin-GSSEDSFVEIRMAEG
notes: human optineurin (OPTN) LIR peptide, residues 172-186; also called OPTN (172–186); OPTN peptide; source: synthetic peptide (GenScript, over 75% purity)
B2: p62 LIR peptide (332-346), biotinylated (peptide)
peptide: Biotin-SGGDDDWTHLSSKEV
notes: human p62/SQSTM1 LIR peptide, residues 332-346; also called p62 (332–346); source: synthetic peptide (GenScript, over 75% purity)
B3: pS177 OPTN LIR peptide (172-186), biotinylated (peptide)
peptide: Biotin-GSSED[pS]FVEIRMAEG
notes: also called pS177 OPTN (172–186); pS177 OPTN peptide; source: synthetic peptide (GenScript, over 75% purity)

Legend:
[1] = molecular target: HIS-tagged LC3Bwt (aa 1-119) (human, UniProt Q9GZQ8 1-119); assay: BLI; Octet RED96; N-terminally biotinylated peptides on streptavidin biosensors, quenched with biocytin; HIS-tagged LC3B/GATE-16 proteins as analyte, 6.8 nM to 5 μM (LC3Bwt on NDP52 peptide: 312.5 nM to 20 μM); DPBS with 150 mM NaCl, 1% BSA, 0.02% Tween 20; 1:1 global fit; details: both partners purified
[2] = molecular target: HIS-tagged GATE-16wt (aa 1-115) (human, UniProt P60520 1-115); assay: as above; details: both partners purified
Chain of HIS-tagged GATE-16wt (aa 1-115) (P60520 1-115): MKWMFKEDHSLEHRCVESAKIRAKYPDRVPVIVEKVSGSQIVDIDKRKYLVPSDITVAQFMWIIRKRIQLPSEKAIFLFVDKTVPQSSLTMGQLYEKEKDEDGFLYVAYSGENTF

Binder	Kd [1] [µM]	binding result [2]
B1	8.4	–
B2	–	binds
B3	0.8 ± 0.048	–

From paper PMC7137635, “Disrupting the LC3 Interaction Region (LIR) Binding of Selective Autophagy Receptors Sensitizes AML Cell Lines to Cytarabine” (Frontiers in Cell and Developmental Biology, 2020)
